Test results as given in US20250257338A1 (JCR PHARMACEUTICALS, published 2025).

Columns and labels:
[1] = target: T1, human TfR extracellular region with N-terminal histidine tag, hTfR-ECD (His tag) (human, UniProt P02786 87-760); assay: BLI (Octet RED96), hTfR-ECD (His tag) on Ni-NTA biosensor, 1:1 model
T1 construct: Loaded on the Ni-NTA biosensor in the BLI assay; 760 is the known length of human TfR, not a printed number; not shown: histidine tag at the N-terminus
Method: In addition, hTfR was adjusted to a concentration of 25 ng/ml, using HBS-P+ (1% BSA) to obtain an hTfR-ECD (His tag) solution.
(§1) The sample solution for hTfR affinity measurement was added to a 96-well plate, black (Greiner Bio-One International GmbH) at 200 μL/well. The hTfR-ECD (His tag) solution was added to predetermined wells at 200 μL/well. HBS-P+ (1% BSA) was added to wells for baseline, dissociation, and washing at 200 μL/well. 10 mM Glycine-HCl (pH 1.7) was added to wells for regeneration at 200 μL/well. 0.5 mM NiCl₂ (1% BSA) solution was added to wells for activation at 200 μL/well. This plate and a biosensor (Biosensor/Ni-NTA, ForteBio) were placed at predetermined positions in the Octet RED96.
Note that the measurement was carried out at a temperature of 25 to 30° C.

[2] = target: T2, human mannose-6-phosphate receptor (cation-independent) domain 9 recombinant protein with C-terminal … (human, UniProt P11717 1219-1364); assay: BLI (Octet RED96), M6PR domain 9 (His tag) on Ni-NTA biosensor, 1:1 model
T2 construct: Loaded on the Ni-NTA biosensor; also called human M6PR; M6PR
Method: (§2) As the human M6PR, there was used a protein having the amino acid sequence represented by SEQ ID NO: 42, in which restriction enzyme-derived amino acids were added to both ends of the amino acid sequence corresponding to domain 9 from valine at the 1219th position to phenylalanine at the 1364th position from the N-terminus side in the amino acid sequence of a cation-independent mannose-6-phosphate receptor represented by SEQ ID NO: 41, and a histidine tag was further added to the C-terminus thereof.
(§3) In addition, human M6PR was adjusted to a concentration of […] with HBS-P+ to obtain an M6PR (His tag) solution.
as §1, with “M6PR” for “hTfR”, “M6PR” for “hTfR-ECD”, “HBS-P+” for “HBS-P+ (1% BSA)”, “NiCl₂” for “NiCl₂ (1% BSA)”

[3] = target: T2, human mannose-6-phosphate receptor …; assay: BLI (Octet RED96), M6PR (His tag) on Ni-NTA biosensor
Method: as §2, §3
as §1, with “M6PR” for “hTfR”, “M6PR” for “hTfR-ECD”, “HBS-P+” for “HBS-P+ (1% BSA)”, “NiCl₂” for “NiCl₂ (1% BSA)”

T1 sequence (P02786 other isoform, or with tags, fused parts or gaps): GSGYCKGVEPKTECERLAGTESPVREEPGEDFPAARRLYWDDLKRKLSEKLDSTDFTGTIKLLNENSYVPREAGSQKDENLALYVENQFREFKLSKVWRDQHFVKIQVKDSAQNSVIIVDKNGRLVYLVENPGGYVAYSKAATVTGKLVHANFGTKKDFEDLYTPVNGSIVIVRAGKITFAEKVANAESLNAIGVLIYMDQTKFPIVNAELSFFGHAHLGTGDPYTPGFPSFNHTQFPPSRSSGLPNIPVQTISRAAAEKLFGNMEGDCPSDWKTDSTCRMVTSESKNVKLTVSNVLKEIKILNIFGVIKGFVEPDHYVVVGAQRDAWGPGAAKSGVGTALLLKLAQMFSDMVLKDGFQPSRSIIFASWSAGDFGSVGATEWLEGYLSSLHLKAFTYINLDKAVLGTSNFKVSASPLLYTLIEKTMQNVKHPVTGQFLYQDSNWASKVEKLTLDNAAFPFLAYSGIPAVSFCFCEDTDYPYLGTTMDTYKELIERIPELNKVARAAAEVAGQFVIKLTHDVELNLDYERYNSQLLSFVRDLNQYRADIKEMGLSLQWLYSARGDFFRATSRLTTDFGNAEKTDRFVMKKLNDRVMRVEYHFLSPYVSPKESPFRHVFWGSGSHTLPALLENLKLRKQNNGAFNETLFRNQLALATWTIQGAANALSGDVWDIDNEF
T2 sequence (P11717 other isoform, or with tags, fused parts or gaps limits assumed): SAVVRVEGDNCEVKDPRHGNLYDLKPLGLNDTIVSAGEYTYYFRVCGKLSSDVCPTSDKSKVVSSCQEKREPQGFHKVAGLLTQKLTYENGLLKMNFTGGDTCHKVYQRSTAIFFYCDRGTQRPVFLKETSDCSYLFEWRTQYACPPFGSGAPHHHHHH

B1: Fab-IDS (WT), fusion protein of wild-type hIDS and an anti-hTfR (Fab) antibody (Fab)
heavy: EVQLVQSGAEVKKPGESLKISCKGSGYSFMNYWLGWVRQMPGKGLEWMGDIYPGGDYPTYSEKFKVQVTISADKSISTAYLQLSSLKASDTAMYYCARSGNYDEVAYWGQGTLVTVSSASTKGPSVFPLAPSSKSTSGGTAALGCLVKDYFPEPVTVSWNSGALTSGVHTFPAVLQSSGLYSLSSVVTVPSSSLGTQTYICNVNHKPSNTKVDKKVEPKSCDKTHTGGGGSGGGGSGGGGSSETQANSTTDALNVLLIIVDDLRPSLGCYGDKLVRSPNIDQLASHSLLFQNAFAQQAVCAPSRVSFLTGRRPDTTRLYDFNSYWRVHAGNFSTIPQYFKENGYVTMSVGKVFHPGISSNHTDDSPYSWSFPPYHPSSEKYENTKTCRGPDGELHANLLCPVDVLDVPEGTLPDKQSTEQAIQLLEKMKTSASPFFLAVGYHKPHIPFRYPKEFQKLYPLENITLAPDPEVPDGLPPVAYNPWMDIRQREDVQALNISVPYGPIPVDFQRKIRQSYFASVSYLDTQVGRLLSALDDLQLANSTIIAFTSDHGWALGEHGEWAKYSNFDVATHVPLIFYVPGRTASLPEAGEKLFPYLDPFDSASQLMEPGRQSMDLVELVSLFPTLAGLAGLQVPPRCPVPSFHVELCREGKNLLKHFRFRDLEEDPYLPGNPRELIAYSQYPRPSDIPQWNSDKPSLKDIKIMGYSIRTIDYRYTVWVGFNPDEFLANFSDIHAGELYFVDSDPLQDHNMYNDSQGGDLFQLLMP
light: DIVMTQTPLSLSVTPGQPASISCRSSQSLVHSNGNTYLHWYLQKPGQSPQLLIYKVSNRFSGVPDRFSGSGSGTDFTLKISRVEAEDVGVYYCSQSTHVPWTFGQGTKVEIKRTVAAPSVFIFPPSDEQLKSGTASVVCLLNNFYPREAKVQWKVDNALQSGNSQESVTEQDSKDSTYSLSSTLTLSKADYEKHKVYACEVTHQGLSSPVTKSFNRGEC
modifications: N-linked sugar chains containing mannose-6-phosphate (M6P) on the asparagines at positions 221 and 255 of the hIDS portion (numbering of SEQ ID NO: 1)
notes: Humanized anti-hTfR Fab; Expressed in ExpiCHO cells
Work on B1 yielded a Kd [1] of 0.67 nM, a koff [1] of 0.000331 s⁻¹ and a kon [1] of 494000 M⁻¹ s⁻¹. It also gave a Kd [2] of 2.32 nM, a koff [2] of 0.000586 s⁻¹ and a kon [2] of 253000 M⁻¹ s⁻¹.

B2: Fab-IDS (m1), fusion protein of hIDS mutant muhIDS-1 (T223A, S257A) and an anti-hTfR (Fab) antibody (Fab)
heavy: EVQLVQSGAEVKKPGESLKISCKGSGYSFMNYWLGWVRQMPGKGLEWMGDIYPGGDYPTYSEKFKVQVTISADKSISTAYLQLSSLKASDTAMYYCARSGNYDEVAYWGQGTLVTVSSASTKGPSVFPLAPSSKSTSGGTAALGCLVKDYFPEPVTVSWNSGALTSGVHTFPAVLQSSGLYSLSSVVTVPSSSLGTQTYICNVNHKPSNTKVDKKVEPKSCDKTHTGGGGSGGGGSGGGGSSETQANSTTDALNVLLIIVDDLRPSLGCYGDKLVRSPNIDQLASHSLLFQNAFAQQAVCAPSRVSFLTGRRPDTTRLYDFNSYWRVHAGNFSTIPQYFKENGYVTMSVGKVFHPGISSNHTDDSPYSWSFPPYHPSSEKYENTKTCRGPDGELHANLLCPVDVLDVPEGTLPDKQSTEQAIQLLEKMKTSASPFFLAVGYHKPHIPFRYPKEFQKLYPLENIALAPDPEVPDGLPPVAYNPWMDIRQREDVQALNIAVPYGPIPVDFQRKIRQSYFASVSYLDTQVGRLLSALDDLQLANSTIIAFTSDHGWALGEHGEWAKYSNFDVATHVPLIFYVPGRTASLPEAGEKLFPYLDPFDSASQLMEPGRQSMDLVELVSLFPTLAGLAGLQVPPRCPVPSFHVELCREGKNLLKHFRFRDLEEDPYLPGNPRELIAYSQYPRPSDIPQWNSDKPSLKDIKIMGYSIRTIDYRYTVWVGFNPDEFLANFSDIHAGELYFVDSDPLQDHNMYNDSQGGDLFQLLMP
light: DIVMTQTPLSLSVTPGQPASISCRSSQSLVHSNGNTYLHWYLQKPGQSPQLLIYKVSNRFSGVPDRFSGSGSGTDFTLKISRVEAEDVGVYYCSQSTHVPWTFGQGTKVEIKRTVAAPSVFIFPPSDEQLKSGTASVVCLLNNFYPREAKVQWKVDNALQSGNSQESVTEQDSKDSTYSLSSTLTLSKADYEKHKVYACEVTHQGLSSPVTKSFNRGEC
In the case of B2, the binding result [3] is reported as “no binding”, the Kd [1] is reported as 0.678 nM and the koff [1] is reported as 0.000331 s⁻¹. For the same binder, the kon [1] was 489000 M⁻¹ s⁻¹.

B3: Fab-IDS (m2), fusion protein of hIDS mutant muhIDS-2 (N221Q, N255Q) and an anti-hTfR (Fab) antibody (Fab)
heavy: EVQLVQSGAEVKKPGESLKISCKGSGYSFMNYWLGWVRQMPGKGLEWMGDIYPGGDYPTYSEKFKVQVTISADKSISTAYLQLSSLKASDTAMYYCARSGNYDEVAYWGQGTLVTVSSASTKGPSVFPLAPSSKSTSGGTAALGCLVKDYFPEPVTVSWNSGALTSGVHTFPAVLQSSGLYSLSSVVTVPSSSLGTQTYICNVNHKPSNTKVDKKVEPKSCDKTHTGGGGSGGGGSGGGGSSETQANSTTDALNVLLIIVDDLRPSLGCYGDKLVRSPNIDQLASHSLLFQNAFAQQAVCAPSRVSFLTGRRPDTTRLYDFNSYWRVHAGNFSTIPQYFKENGYVTMSVGKVFHPGISSNHTDDSPYSWSFPPYHPSSEKYENTKTCRGPDGELHANLLCPVDVLDVPEGTLPDKQSTEQAIQLLEKMKTSASPFFLAVGYHKPHIPFRYPKEFQKLYPLEQITLAPDPEVPDGLPPVAYNPWMDIRQREDVQALQISVPYGPIPVDFQRKIRQSYFASVSYLDTQVGRLLSALDDLQLANSTIIAFTSDHGWALGEHGEWAKYSNFDVATHVPLIFYVPGRTASLPEAGEKLFPYLDPFDSASQLMEPGRQSMDLVELVSLFPTLAGLAGLQVPPRCPVPSFHVELCREGKNLLKHFRFRDLEEDPYLPGNPRELIAYSQYPRPSDIPQWNSDKPSLKDIKIMGYSIRTIDYRYTVWVGFNPDEFLANFSDIHAGELYFVDSDPLQDHNMYNDSQGGDLFQLLMP
light: DIVMTQTPLSLSVTPGQPASISCRSSQSLVHSNGNTYLHWYLQKPGQSPQLLIYKVSNRFSGVPDRFSGSGSGTDFTLKISRVEAEDVGVYYCSQSTHVPWTFGQGTKVEIKRTVAAPSVFIFPPSDEQLKSGTASVVCLLNNFYPREAKVQWKVDNALQSGNSQESVTEQDSKDSTYSLSSTLTLSKADYEKHKVYACEVTHQGLSSPVTKSFNRGEC
With B3 the binding result [3] was “no binding”, the Kd [1] was 0.661 nM and the koff [1] was 0.00031 s⁻¹. The kon [1] was 469000 M⁻¹ s⁻¹.
